Laboratory results: patent US20060263331A1, “Therapeutic use of tumor necrosis factor-alpha mutein” (priority 2002, published 2006)

Experiments:
[1] = system: Lung Cancer; test: Clinical monotherapy of rhTNFm1, lung cancer; assay type: in vivo, human
From the text: (§1) Patients were selected based on the following criteria: i) measurable, objective tumor; ii) Karnofsky performance status (KPS)≧60; iii) age 18-75; iv) major organs in basically normal condition; v) no chemotherapy, radiotherapy and biologic therapy within the last month; vi) predicted ≧3 mon. survival; and vii) with patient's informed consent signed.
(§2) Patients were excluded based on the following criteria: i) with history of allergic reactions to TNF or its derivatives; ii) pregnant or lactating women; iii) major organs with obvious damages or malfunction; iv) in ≧38° C. fever; v) with obvious tendency to haemorrhage; vi) with history of hypo- or hypertension; vii) with serious albuminemia; and viii) with strong tendency of disobedience or resistance.
(§3) Patients were removed from the evaluation if any of the following conditions apply: i) treatment was not completed according to the protocol; ii) incomplete records; and iii) treatment using cancer therapies not in the protocol. However, patients who withdrew due to adverse reactions to the therapy were still included in the evaluation.
(§4) The results of the treatment of tumors were evaluated based the following criteria: i) complete response (CR)—complete disappearance of observable pathological changes for at least 4 weeks; ii) partial response (PR)—reduction by ≧50% in tumor size measured by the product of the maximum circular and vertical dimensions for at least 4 weeks; iii) minimum response (MR)—reduction by >25% but <50% in tumor size measured by the product of the maximum circular and vertical dimensions for at least 4 weeks; iv) stabilized (SD)—reduction by ≦25% but without increase by >25% in tumor size measured by the product of the maximum circular and vertical dimensions for at least 4 weeks; and progression (PD): increase by >25% in tumor size in one or more sites.
(§5) Patients rested on day 1 and 2. The treatment cycle was 3-4 weeks.

[2] = system: Kidney Cancer; test: Clinical monotherapy of rhTNFm1, kidney cancer; assay type: in vivo, human; conditions: 3 patients
From the text: as §1, §2, §3, §4, §5

[3] = system: Malignant Lymphoma; test: Clinical monotherapy of rhTNFm1, malignant lymphoma; assay type: in vivo, human; conditions: 71 patients
From the text: as §1, §2, §3, §4, §5
Table II summaries results of the treatment of patients with malignant lymphoma, classified according to Hodgkin's disease and non-Hodgkin's lymphoma. Within each of category of lymphoma, patients were further classified into two groups: chemo-naïve and chemo-refractory. The chemo-naïve patients were patients who had never been treated with any anti-cancer agent previously whereas chemo-refractory patients were ones who failed treatment with one or more anti-cancer agent.

[4] = system: malignant tumors; test: Clinical monotherapy of rhTNFm1, all malignant tumors (Total); assay type: in vivo, human; conditions: Total of tumor indications, 141 patients
From the text: as §1, §2, §3, §4, §5

[5] = system: malignant pleural effusion; test: Clinical monotherapy of rhTNFm1, malignant pleural effusion; assay type: in vivo, human; conditions: 141 patients
From the text: as §1, §2, §3
(§6) The results of the treatment of malignant pleural effusion (or hydrothorax) and ascites were evaluated based on a modified Millar standard (Millar J W, Hunfer A M, Home N W. (1980) “Inerapleural immunotherapy with CP”, in Recurrent Malignant Pleural Effusions. Thorax 35:856): i) complete response (CR)—complete disappearance of pleural effusion or ascites for at least 1 month; ii) partial response (PR)—reduction by at least 1 grade for at least 1 month; iii) minimum response (MR)—reduction in the levels of pleural effusion or ascites within the same grade for at least 1 month; iv) stabilized (SD)—levels of pleural effusion or ascites maintained within the same grade for at least 1 month; and progressed (PD): increase in the levels of pleural effusion or ascites compared with those before the treatment.
as §5
(§7) It is noted that Table III includes the patients who withdrew due to […], including 1 with malignant pleural effusion and 1 with malignant ascites. For patients with malignant ascites, rhTNFm1 was reconstituted in 30-50 ml normal saline and administered intraperitoneally (i.p.) at 2,000,000-3,000,000 units each time, 1-2 times a week, with 2-3 weeks as one treatment cycle. Optionally, rhTNFm1 was administered to the patients by alternating between i.p. injection and i.v. injection (at 600,000-900,000 unit/m^2 per day continuing for 28 days as one treatment cycle). On the day when rhTNFm1 was administered via i.p. injection, administration of rhTNFm1 via i.v. injection was stopped.

[6] = system: malignant ascites; test: Clinical monotherapy of rhTNFm1, malignant ascites; assay type: in vivo, human; conditions: 28 patients, monotherapy i.p.
From the text: as §1, §2, §3, §6, §7

[7] = KPS of patients treated with rhTNFm1 alone; assay type: in vivo, human; conditions: P=0.013, particularly malignant pleural effusion
From the text: as §1, §5

[8] = in vivo
Experimental: Patients with the following malignancy: malignant lymphoma, lung cancer, melanoma, breast cancer, liver cancer, kidney cancer, colon cancer, pleural effusion and ascites were treated with a monotherapy of the recombinant protein rhTNFm1 described above.
Patients were treated with rhTNFm1 at 600,000-900,000 unit/m^2 (about 1-50 μg/m^2 depending on the specific bioactivity of a particular lot) per day, 5 times a week (day 3-7) via i.v. injection. Patients rested on day 1 and 2. The treatment cycle was 3-4 weeks.

[9] = Lung Cancer, 20 patients, monotherapy
[10] = patient count, Lung Cancer, 20 patients, monotherapy

B1: rhTNFm1: Recombinant human TNF-α mutant 1 expressed in E. coli; SEQ ID NO: 3 with N-terminal methionine (FIG. 1, 2) (protein)
chain: MRKRKPVAHVVANPQAEGQLQWLNRRANALLANGVELRDNQLVVPSEGLYLIYSQVLFKGQGCPSTHVLLTHTISRIAVSYQTKVNLLSAIKSPCQRETPEGAEAKPWYEPIYLGGVFQLEKGDRLSAEINRPDYLDFAESGQVYFGIIAQ
modifications: rhTNFm1 with Met
[1]; [9]
  Response Rate (%) CR: 0.00%
  Response Rate (%) CR + PR: 5.00%
  Response Rate (%) PR: 5.00%
[1]; one lung cancer patient
  pleural fluid, reexamination about 1 month later: little pleural fluid remained
  tumor diameter, reexamination about 1 month later, CT scanning: 3.5 cm
[1]; one lung cancer patient, before 5 cm
  tumor diameter after the treatment, CT scanning: 2.5 cm
[1]; one lung cancer patient, before 40
  quality of life score after the treatment: 53
[1]; one lung cancer patient, before 70
  KPS after the treatment: 90
[1]; one lung cancer patient, before a large amount of pleural fluid
  pleural fluid after the treatment: small amount of pleural fluid remained
[1]; [10]
  Efficacy CR: 0
  Efficacy MR: 2
  Efficacy PD: 4
  Efficacy PR: 1
  Efficacy SD: 13
[2]
  Response Rate (%) CR: 0.00%
  Response Rate (%) CR + PR: 0.00%
  Response Rate (%) PR: 0.00%
[2]; patient count
  Efficacy CR: 0
  Efficacy MR: 1
  Efficacy PD: 1
  Efficacy PR: 0
  Efficacy SD: 1
[3]
  Response Rate (%) CR: 2.82%
  Response Rate (%) CR + PR: 28.17%
  Response Rate (%) PR: 25.35%
[3]; patient count
  Efficacy CR: 2
  Efficacy MR: 8
  Efficacy PD: 11
  Efficacy PR: 18
  Efficacy SD: 32
[4]
  Response Rate (%) CR: 1.42%
  Response Rate (%) CR + PR: 16.31%
  Response Rate (%) PR: 14.89%
[4]; patient count
  Efficacy CR: 2
  Efficacy MR: 14
  Efficacy PD: 29
  Efficacy PR: 21
  Efficacy SD: 75
[5]
  Response Rate (%) CR: 9.93%
  Response Rate (%) PR: 64.54%
[5]; patient count
  Efficacy CR: 14
  Efficacy MR: 9
  Efficacy PD: 1
  Efficacy PR: 91
  Efficacy SD: 26
[6]
  Response Rate (%) CR: 3.57%
  Response Rate (%) CR + PR: 42.86%
  Response Rate (%) PR: 39.29%
[6]; patient count
  Efficacy CR: 1
  Efficacy MR: 3
  Efficacy PD: 1
  Efficacy PR: 11
  Efficacy SD: 12
[7]
  KPS compared to that prior to the treatment: significantly improved
[8]
  adverse effects compared to wild type TNF-α: much fewer and weaker adverse effects
  duration of chill: ≤ 30 min
  duration of chills: no more than half an hour
  duration of fever: no more than half an hour
  fever grade during the treatment: Grade I
  highest body temperature during the treatment: 37.2 °C
  patients with 3rd degree fever: two
  patients with chills: 23%
  patients with fever below the 2nd degree: About 38%
  patients with mild chills: 11%
  patients with slight chills: 12%
  time of occurrence of chills after the administration: ≤ 30 min
  time of occurrence of fever post administration: 1 to 2 h
[8]; iv
  adverse reactions during the treatment: slight asthenia
